Laboratory results reported in the Human Domainome abundance scans (Beltran et al. 2025).
± gives the uncertainty stated by the source.

B1: Max-interacting protein 1, residues 70 to 120; numbered along this chain, P50539 (parent)
chain: STHNELEKNRRAHLRLCLERLKVLIPLGPDCTRHTTLGLLNKAKAHIKKLE

Variants of: B1
Assay: abundance fitness (aPCA) (normalised: wild type 0, dead -1); higher = more abundant; growth selection in yeast, the domain comes from the species named
Conditions: Homo sapiens

L37N and L37D are within error of each other in abundance fitness: -0.292 ± 0.21 for the first, -0.375 ± 0.15 for the second.

Going from L37W to L37C, the abundance fitness falls from 0.125 ± 0.12 to -0.244 ± 0.19.

V23Y and V23L are within error of each other in abundance fitness: -0.062 ± 0.14 for the first, 0.128 ± 0.092 for the second.

V23G and H46Q are within error of each other in abundance fitness: 0.355 ± 0.084 for the first, 0.305 ± 0.11 for the second.

Compared with H46W, H46E is lower in abundance fitness: 0.216 ± 0.085 for the first, -0.527 ± 0.14 for the second.

R33G and R33C are within error of each other in abundance fitness: -0.257 ± 0.072 for the first, -0.365 ± 0.11 for the second.

First: R33Y
Second: R33I
The abundance fitness of the first is higher: -0.107 ± 0.14 for the first, -0.691 ± 0.15 for the second.

R33N and R33Q are within error of each other in abundance fitness: -0.372 ± 0.15 for the first, -0.116 ± 0.12 for the second.

Going from R33P to R33D, the abundance fitness falls from -0.225 ± 0.13 to -0.644 ± 0.14.

R10G and R10Q are within error of each other in abundance fitness: -0.322 ± 0.083 for the first, -0.219 ± 0.15 for the second.

Compared with R10T, R10H is lower in abundance fitness: 0.309 ± 0.14 for the first, -0.068 ± 0.14 for the second.

Going from R10F to R10P, the abundance fitness rises from -0.164 ± 0.13 to 0.298 ± 0.14.

Compared with R10E, H3A is higher in abundance fitness: -0.71 ± 0.13 for the first, -0.099 ± 0.1 for the second.

Going from H3V to E51N, the abundance fitness rises from -0.053 ± 0.11 to 0.504 ± 0.18.

Compared with E51Y, E51I is lower in abundance fitness: 0.374 ± 0.21 for the first, -0.459 ± 0.47 for the second.

Going from E51V to E51S, the abundance fitness rises from 0.271 ± 0.14 to 0.615 ± 0.16.

Compared with L50R, L39H is lower in abundance fitness: -0.459 ± 0.1 for the first, -1.15 ± 0.36 for the second.

Compared with L39Q, L39I is higher in abundance fitness: -0.894 ± 0.18 for the first, -0.07 ± 0.13 for the second.

Compared with G28I, G28M is lower in abundance fitness: 0.402 ± 0.12 for the first, 0.074 ± 0.11 for the second.

Going from L6M to L6E, the abundance fitness falls from -0.247 ± 0.13 to -0.574 ± 0.14.

L6K and K49S are within error of each other in abundance fitness: -0.086 ± 0.13 for the first, -0.278 ± 0.1 for the second.

First: K49V
Second: K49L
The abundance fitness of the first is lower: -0.618 ± 0.11 for the first, -0.386 ± 0.094 for the second.

First: L27I
Second: D30S
The abundance fitness of the first is lower: -0.004 ± 0.13 for the first, 0.279 ± 0.07 for the second.

D30K and D30R are within error of each other in abundance fitness: 0.213 ± 0.11 for the first, 0.178 ± 0.079 for the second.

First: I25A
Second: I25Y
The abundance fitness of the first is lower: -0.584 ± 0.11 for the first, -0.309 ± 0.16 for the second.

I25C and I25V are within error of each other in abundance fitness: 0.045 ± 0.14 for the first, -0.062 ± 0.088 for the second.

First: C17R
Second: C17P
The abundance fitness of the first is lower: -0.729 ± 0.089 for the first, -0.232 ± 0.11 for the second.

First: C17M
Second: C17E
The abundance fitness of the first is higher: 0.123 ± 0.11 for the first, -0.681 ± 0.17 for the second.

I47N and I47T are within error of each other in abundance fitness: -0.702 ± 0.18 for the first, -0.61 ± 0.16 for the second.

S1T and S1W are within error of each other in abundance fitness: -0.577 ± 0.34 for the first, -0.916 ± 0.18 for the second.

A43D and A43S are within error of each other in abundance fitness: -0.634 ± 0.17 for the first, -0.652 ± 0.11 for the second.

Compared with A43Y, A43T is higher in abundance fitness: -0.918 ± 0.26 for the first, -0.339 ± 0.11 for the second.

First: N4I
Second: N41M
The abundance fitness of the first is higher: 0.278 ± 0.21 for the first, -0.559 ± 0.27 for the second.

N41E and N41Y are within error of each other in abundance fitness: -0.139 ± 0.27 for the first, -0.745 ± 0.34 for the second.

R15P and R15H are within error of each other in abundance fitness: -0.21 ± 0.13 for the first, -0.462 ± 0.23 for the second.

Compared with R15M, R15K is higher in abundance fitness: -0.462 ± 0.17 for the first, 0.143 ± 0.12 for the second.

A45M and A45H are within error of each other in abundance fitness: -0.276 ± 0.12 for the first, -0.168 ± 0.18 for the second.

Going from A45P to A45C, the abundance fitness rises from -0.631 ± 0.14 to -0.25 ± 0.17.

Going from T2V to T2P, the abundance fitness rises from -0.663 ± 0.088 to -0.35 ± 0.078.

Going from T2G to T2A, the abundance fitness rises from -0.69 ± 0.12 to -0.303 ± 0.086.

T2F and T2R are within error of each other in abundance fitness: -0.586 ± 0.097 for the first, -0.631 ± 0.1 for the second.

L18D and L18I are within error of each other in abundance fitness: -0.625 ± 0.2 for the first, -0.295 ± 0.21 for the second.

L18Q and L40C are within error of each other in abundance fitness: -1.08 ± 0.18 for the first, -0.926 ± 0.16 for the second.

L40E and L40K are within error of each other in abundance fitness: -0.857 ± 0.13 for the first, -0.793 ± 0.24 for the second.

L21V and L21P are within error of each other in abundance fitness: -0.669 ± 0.1 for the first, -0.978 ± 0.22 for the second.

L21W and L24Q are within error of each other in abundance fitness: -0.594 ± 0.12 for the first, -0.569 ± 0.21 for the second.

Going from L24G to L24V, the abundance fitness rises from -0.461 ± 0.093 to -0.193 ± 0.087.

First: L24E
Second: L16Y
The abundance fitness of the first is lower: -0.751 ± 0.15 for the first, -0.241 ± 0.17 for the second.

L16P and L16F are within error of each other in abundance fitness: -0.126 ± 0.14 for the first, -0.207 ± 0.18 for the second.

L16I and L16D are within error of each other in abundance fitness: -0.133 ± 0.19 for the first, -0.037 ± 0.25 for the second.

Going from K8T to K8G, the abundance fitness rises from -0.377 ± 0.12 to -0.043 ± 0.087.

K8L and K8Q are within error of each other in abundance fitness: -0.232 ± 0.11 for the first, -0.492 ± 0.22 for the second.

T35C and T35K are within error of each other in abundance fitness: 0.019 ± 0.098 for the first, 0.218 ± 0.14 for the second.

Going from T35R to T35H, the abundance fitness falls from 0.225 ± 0.075 to -0.023 ± 0.14.

T35F and T35A are within error of each other in abundance fitness: 0.198 ± 0.13 for the first, 0.213 ± 0.082 for the second.

Going from R11V to E5K, the abundance fitness rises from -0.509 ± 0.087 to -0.232 ± 0.17.

E5R and E5P are within error of each other in abundance fitness: -0.27 ± 0.097 for the first, -0.15 ± 0.11 for the second.

Going from E5W to T36K, the abundance fitness rises from -0.435 ± 0.14 to -0.091 ± 0.15.

Going from T36E to T36V, the abundance fitness rises from -0.487 ± 0.13 to 0.308 ± 0.084.

Going from H13T to H13G, the abundance fitness rises from -0.353 ± 0.15 to 0.124 ± 0.08.

Going from C31K to C31F, the abundance fitness falls from 0.334 ± 0.12 to 0.007 ± 0.13.

C31A and C31I are within error of each other in abundance fitness: 0.106 ± 0.081 for the first, 0.167 ± 0.13 for the second.

First: P26L
Second: P26G
The abundance fitness of the first is lower: -0.326 ± 0.095 for the first, 0.278 ± 0.087 for the second.

First: P26F
Second: H34Q
The abundance fitness of the first is lower: -0.557 ± 0.2 for the first, -0.028 ± 0.11 for the second.

First: H34D
Second: L14A
The abundance fitness of the first is lower: -0.457 ± 0.12 for the first, -0.197 ± 0.096 for the second.

L14E and L14T are within error of each other in abundance fitness: -0.645 ± 0.16 for the first, -0.368 ± 0.14 for the second.

L14D and L14R are within error of each other in abundance fitness: -0.274 ± 0.18 for the first, -0.447 ± 0.086 for the second.

L14G and E7M are within error of each other in abundance fitness: -0.265 ± 0.083 for the first, -0.173 ± 0.12 for the second.

E7I and T32D are within error of each other in abundance fitness: -0.479 ± 0.14 for the first, -0.387 ± 0.11 for the second.

First: T32Q
Second: T32V
The abundance fitness of the first is lower: -0.112 ± 0.16 for the first, 0.341 ± 0.079 for the second.

Going from A12I to A12V, the abundance fitness rises from -0.847 ± 0.2 to -0.438 ± 0.087.

A12R and A12Q are within error of each other in abundance fitness: -0.327 ± 0.086 for the first, -0.305 ± 0.12 for the second.

Compared with K48M, K48R is higher in abundance fitness: -0.65 ± 0.18 for the first, -0.288 ± 0.087 for the second.

Going from K48T to K42S, the abundance fitness rises from -0.719 ± 0.15 to -0.338 ± 0.094.

K42L and K42Y are within error of each other in abundance fitness: -0.641 ± 0.1 for the first, -0.684 ± 0.15 for the second.

K42N and K42G are within error of each other in abundance fitness: -0.598 ± 0.18 for the first, -0.421 ± 0.08 for the second.

K22Q and K22A are within error of each other in abundance fitness: -1.02 ± 0.26 for the first, -0.903 ± 0.15 for the second.

First: K22L
Second: G38H
The abundance fitness of the first is lower: -0.639 ± 0.097 for the first, -0.168 ± 0.18 for the second.

First: G38I
Second: P29Q
The abundance fitness of the first is lower: -0.486 ± 0.22 for the first, 0.028 ± 0.13 for the second.

P29T and P29R are within error of each other in abundance fitness: 0.177 ± 0.12 for the first, 0.216 ± 0.085 for the second.

P29A and P29F are within error of each other in abundance fitness: 0.466 ± 0.11 for the first, 0.413 ± 0.14 for the second.

P29W and P29V are within error of each other in abundance fitness: 0.519 ± 0.11 for the first, 0.401 ± 0.095 for the second.

E19A and E19S are within error of each other in abundance fitness: -0.23 ± 0.088 for the first, -0.083 ± 0.11 for the second.

Variant E19D has an abundance fitness of -0.252 ± 0.2.
